In article PMC3576117 one finds fold decrease in affinity against the wild type peptide data, which are given here for 2 substances.

In the experiment the target is biotinylated, tyrosine-phosphorylated CLEC-2 alanine substitution mutant peptide (2–5 Ala). The experiment can be described thus: SPR. In general terms: Surface plasmon resonance follows binding to a sensor surface in real time, without labels.

The substance “GST-tagged recombinant Syk C-terminal SH2 domain (domain or fragment)” came in with a fold decrease in affinity against the wild type peptide of 4 fold.

“GST-tagged recombinant Syk tandem SH2 domains (both SH2 domains with the linker region) (domain or fragment)”: the fold decrease in affinity against the wild type peptide is 3 fold.
